Measured values reported in PMC8926151 (Science (New York, N.Y.), 2021).

B1: human GPR158 receptor (receptor, UniProt Q5T848 24-1215, looked up)
chain: ASRDPQGRPDSPRERTPKGKPHAQQPGRASASDSSAPWSRSTDGTILAQKLAEEVPMDVASYLYTGDSHQLKRANCSGRYELAGLPGKWPALASAHPSLHRALDTLTHATNFLNVMLQSNKSREQNLQDDLDWYQALVWSLLEGEPSISRAAITFSTDSLSAPAPQVFLQATREESRILLQDLSSSAPHLANATLETEWFHGLRRKWRPHLHRRGPNQGPRGLGHSWRRKDGLGGDKSHFKWSPPYLECENGSYKPGWLVTLSSAIYGLQPNLVPEFRGVMKVDINLQKVDIDQCSSDGWFSGTHKCHLNNSECMPIKGLGFVLGAYECICKAGFYHPGVLPVNNFRRRGPDQHISGSTKDVSEEAYVCLPCREGCPFCADDSPCFVQEDKYLRLAIISFQALCMLLDFVSMLVVYHFRKAKSIRASGLILLETILFGSLLLYFPVVILYFEPSTFRCILLRWARLLGFATVYGTVTLKLHRVLKVFLSRTAQRIPYMTGGRVMRMLAVILLVVFWFLIGWTSSVCQNLEKQISLIGQGKTSDHLIFNMCLIDRWDYMTAVAEFLFLLWGVYLCYAVRTVPSAFHEPRYMAVAVHNELIISAIFHTIRFVLASRLQSDWMLMLYFAHTHLTVTVTIGLLLIPKFSHSSNNPRDDIATEAYEDELDMGRSGSYLNSSINSAWSEHSLDPEDIRDELKKLYAQLEIYKRKKMITNNPHLQKKRCSKKGLGRSIMRRITEIPETVSRQCSKEDKEGADHGTAKGTALIRKNPPESSGNTGKSKEETLKNRVFSLKKSHSTYDHVRDQTEESSSLPTESQEEETTENSTLESLSGKKLTQKLKEDSEAESTESVPLVCKSASAHNLSSEKKTGHPRTSMLQKSLSVIASAKEKTLGLAGKTQTAGVEERTKSQKPLPKDKETNRNHSNSDNTETKDPAPQNSNPAEEPRKPQKSGIMKQQRVNPTTANSDLNPGTTQMKDNFDIGEVCPWEVYDLTPGPVPSESKVQKHVSIVASEMEKNPTFSLKEKSHHKPKAAEVCQQSNQKRIDKAEVCLWESQGQSILEDEKLLISKTPVLPERAKEENGGQPRAANVCAGQSEELPPKAVASKTENENLNQIGHQEKKTSSSEENVRGSYNSSNNFQQPLTSRAEVCPWEFETPAQPNAGRSVALPASSALSANKIAGPRKEEIWDSFKV

Experiments:
[1] = target: the molecule itself; assay: cryo-EM structure
[2] = target: B1; assay: cryo-EM structure

B1
stoichiometry N [1]: 2

B2: RGS7-Gβ5 signaling complex (complex)
chain 1: MAQGNNYGQTSNGVADESPNMLVYRKMEDVIARMQDEKNGIPIRTVKSFLSKIPSVFSGSDIVQWLIKNLTIEDPVEALHLGTLMAAHGYFFPISDHVLTLKDDGTFYRFQTPYFWPSNCWEPENTDYAVYLCKRTMQNKARLELADYEAESLARLQRAFARKWEFIFMQAEAQAKVDKKRDKIERKILDSQERAFWDVHRPVPGCVNTTEVDIKKSSRMRNPHKTRKSVYGLQNDIRSHSPTHTPTPETKPPTEDELQQQIKYWQIQLDRHRLKMSKVADSLLSYTEQYLEYDPFLLPPDPSNPWLSDDTTFWELEASKEPSQQRVKRWGFGMDEALKDPVGREQFLKFLESEFSSENLRFWLAVEDLKKRPIKEVPSRVQEIWQEFLAPGAPSAINLDSKSYDKTTQNVKEPGRYTFEDAQEHIYKLMKSDSYPRFIRSSAYQELLQAKKK
chain 2: GLHENETLASLKSEAESLKGKLEEERAKLHDVELHQVAERVEALGQFVMKTRRTLKGHGNKVLCMDWCKDKRRIVSSSQDGKVIVWDSFTTNKEHAVTMPCTWVMACAYAPSGCAIACGGLDNKCSVYPLTFDKNENMAAKKKSVAMHTNYLSACSFTNSDMQILTASGDGTCALWDVESGQLLQSFHGHGADVLCLDLAPSETGNTFVSGGCDKKAMVWDMRSGQCVQAFETHESDINSVRYYPSGDAFASGSDDATCRLYDLRADREVAIYSKESIIFGASSVDFSLSGRLLFAGYNDYTINVWDVLKGSRVSILFGHENRVSTLRVSPDGTAFCSGSWDHTLRVWA
stoichiometry N [2]: 1 RGS7-Gβ5 complex per GPR158 homodimer
